Experimental data published in patent publication US20230083243A1 (VEGA THERAPEUTICS, published 2023).

Columns and labels:
human Protein S [1] = molecular target: T1, human Protein S (human, UniProt P07225 42-676); test: SPR Biacore X100; antibody captured by anti-human IgG (Fc); Protein S 2-128 nM; 5 mM CaCl2; 1:1 fit
T1 construct: also called ProS; ProS1
T1 sequence: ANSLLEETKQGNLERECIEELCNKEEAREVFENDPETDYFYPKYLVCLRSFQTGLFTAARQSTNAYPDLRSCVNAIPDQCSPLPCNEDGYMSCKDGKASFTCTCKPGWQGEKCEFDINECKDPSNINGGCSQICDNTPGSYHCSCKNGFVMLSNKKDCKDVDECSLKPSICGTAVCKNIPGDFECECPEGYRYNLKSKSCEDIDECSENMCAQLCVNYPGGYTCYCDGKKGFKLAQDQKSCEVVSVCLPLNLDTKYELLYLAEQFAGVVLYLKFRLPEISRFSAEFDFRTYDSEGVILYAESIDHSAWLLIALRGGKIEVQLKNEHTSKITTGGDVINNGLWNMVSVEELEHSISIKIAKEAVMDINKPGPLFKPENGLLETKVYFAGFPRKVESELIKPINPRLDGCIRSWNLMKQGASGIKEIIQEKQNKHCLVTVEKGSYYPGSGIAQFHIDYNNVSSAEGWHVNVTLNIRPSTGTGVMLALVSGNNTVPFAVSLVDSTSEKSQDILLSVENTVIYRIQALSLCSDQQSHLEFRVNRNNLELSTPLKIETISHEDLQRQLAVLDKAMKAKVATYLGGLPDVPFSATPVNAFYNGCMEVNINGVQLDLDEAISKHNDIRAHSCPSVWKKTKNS
Experimental: Binding characteristics of the Protein S antibodies were also determined. Binding interaction analysis was obtained by Surface Plasmon Resonance in a Biacore X100 instrument. The human anti-IgG (Fc) antibody was immobilized to the carboxymethylated dextran membrane on the sensor chip surface (CM5) via the free amine method for a contact time of 420 seconds. Human anti-IgG antibody at 25 μg/mL in 0.15 M NaCl was immobilized to 9,785 RU in 10 mM sodium acetate pH 5.0.
Dilution and running buffer were as follows: Hbs−EP+5 mM CaCl₂. Regeneration was obtained by 3 M MgCl₂. Binding constants (ka, kd, and KD) were determined using the Biacore X100 evaluation software, assuming a 1:1 interaction of Protein S and the tested monoclonal antibody under investigation.

[2] = molecular target: T2, cynomolgus monkey Protein S (cynomolgus monkey); test: BLI Octet; antibody on anti-human Fc probe; Protein S 7.81-500 nM; 4 mM CaCl2
T2 construct: also called cyno Protein S
Experimental: (§1) Binding characteristics of the Protein S antibodies were also further characterized using Octet. Using the Octet System (Sartorius), the binding of each antibody to both human and cynomolgus monkey (“cyno” in Table 10) Protein S was determined. The human Fc antibodies were immobilized onto anti-human Fc capture probes by placing the probes into 10 μg/ml antibody solution in 10 mg/ml bovine serum albumin, 20 mM Tris pH 7.0, 150 mM NaCl, and 4 mM calcium chloride. […] Next, the probes were placed into buffer and the dissociation rates were measured.

human Protein S [3] = molecular target: T1, human Protein S; test: as above
Experimental: as §1

B1: Antibody 1 (antibody, V domains shown)
VH: QVQLVQSGAEVKKPGSSVKVSCKVSGGTFSSYSISWVRQAPGQGLEWMGGIIPIFGTTNYAQKFQGRVTITADESTSTAYMDLSSLKSEDTAMYYCEGGRVGADFDYWGQGTLVTVSS
VL: SSDLTQGPAVSVALGQTVRITCQGDSLRNYYASWYQQKPGQAPVPVIYGKNDRPSGIPDRFSGSISGNTASLTITGAQAEDEAHYYCNSRDSSGNHVVFGGGTKLTVL
notes: Same variable regions as Antibody 13
Human Protein S [1]
  Kd: 1.33 nM
  koff: 0.00039 s⁻¹
  kon: 290000 M⁻¹ s⁻¹
[2]
  Kd: < 0.001 nM
  koff: < 1e-07 s⁻¹
  kon: 139000 M⁻¹ s⁻¹
Human Protein S [3]
  Kd: < 0.001 nM
  koff: < 1e-07 s⁻¹
  kon: 169000 M⁻¹ s⁻¹

B2: Antibody 4 (antibody, V domains shown)
VH: QVQLVESGGGVVQPGRSLRLSCAASGFTFSTYGFHWVRQPPGKGLEWVAVIYYDGINKYYADSVKGRFTISRDNSKNTLFLQMNSLRAEDTAVYYCAESDLDYWGQGTLVTVSS
VL: EIVLTQSPATLSLSPGERATLSCRASQSVSIYLAWYQQKPGQAPRLLIYDASNRATGIPARFSGSGSGTDFTLTISSLEPEDFAVYYCQQRSNWPLTFGPGTKVDIK
notes: Same variable regions as Antibody 16
Human Protein S [1]
  Kd: 4.13 nM
  koff: 0.00165 s⁻¹
  kon: 399000 M⁻¹ s⁻¹
[2]
  Kd: 15.3 nM
  koff: 0.00308 s⁻¹
  kon: 201000 M⁻¹ s⁻¹
Human Protein S [3]
  Kd: 2.62 nM
  koff: 0.000708 s⁻¹
  kon: 271000 M⁻¹ s⁻¹

B3: Antibody 27 (antibody, V domains shown)
VH: QVQLQQSGPGLVKPSQTLSLTCAISGDSVSNNNAAWNWIRQSPSRGLEWLGGTYYRSKWYNDYAVSVKSRIIINPVTSKNQFSLQLNSVTPEDTAVYYCARGSSWYRFFDYWGQGTLVTVSS
VL: EIVLTQSPGTLSLSPGERATLSCRASQSVGSSYLAWYQQKPGQAPRLLISGASGRATGIPDRFSGSGSGTDFTLTISRLEPEDFTVYYCQQYGSSPYTFGQGTKLEIK
notes: Same variable regions as Antibody 33
[2]
  Kd: 34.3 nM
  koff: 0.00233 s⁻¹
  kon: 67900 M⁻¹ s⁻¹
Human Protein S [3]
  Kd: 0.574 nM
  koff: 0.000159 s⁻¹
  kon: 277000 M⁻¹ s⁻¹

B4: Antibody 28 (antibody, V domains shown)
VH: QVQLQQSGTELVRPGTSVKMSCKAAGYTFTNHWIGWVKQRPGHGLEWIGDIYPGGGYTNYNEKFKGKASLTADTSSTTAYMQLSSLTSEDSAIYYCSRFGDQNWAWFAYWGQGTLVTVSA
VL: DIQMNQSPSSLSASLGDTITITCRASQNIHMWLSWYQQKPGNIPKLLIFKTSNLHTGVPSRFSGSGSGTDFTLTISSLQPEDIATYYCLQGQSYPFTFGGGTKLEIK
[2]
  Kd: 9.81 nM
  koff: 0.00106 s⁻¹
  kon: 109000 M⁻¹ s⁻¹
Human Protein S [3]
  Kd: 6.78 nM
  koff: 0.00106 s⁻¹
  kon: 156000 M⁻¹ s⁻¹

B5: Antibody 6 (antibody, V domains shown)
VH: QVQLQESGPGLVKPSETLSLTCTVSGGSISNYYWNWIRQPPGKGLEWIGYIYYIGITDYNPSLKSRVTISVDTSKNQFSLKVTSVTAADTAVYYCAALSGDHAFDIWGQGTLVTVSS
VL: not shown
notes: Same variable regions as Antibody 18
Human Protein S [1]
  Kd: 5.79 nM
  koff: 0.0016 s⁻¹
  kon: 280000 M⁻¹ s⁻¹
[2]
  Kd: 2.81 nM
  koff: 0.000394 s⁻¹
  kon: 140000 M⁻¹ s⁻¹
Human Protein S [3]
  Kd: 1.47 nM
  koff: 0.000332 s⁻¹
  kon: 226000 M⁻¹ s⁻¹

B6: Antibody 43 (antibody, V domains shown)
VH: QVQLVQSGAEVKKPGASVKVSCKASGYTFTSYYIHWVRQAPGQGLEWMGVTSPSGRSTSFAQKFQGRVTMTRDTSTSAVYMDLDSLRSEDTAVYYCARGGVTIHLERRGYFDYWGQGTLVIVSS
VL: not shown
notes: Same variable regions as Antibody 44
[2]
  Kd: 3.88 nM
  koff: 0.00104 s⁻¹
  kon: 268000 M⁻¹ s⁻¹
Human Protein S [3]
  Kd: 1.99 nM
  koff: 0.000636 s⁻¹
  kon: 320000 M⁻¹ s⁻¹

B7: Antibody 7 (antibody, V domains shown)
VH: QLQLQESGPGLVKPSETLSLTCTVSGGSISSSSYYWGWIRQPPGKGLEWIGNIYYSGNTYYNPSLKSRVTISVDTSKNQFSLKLSSMTAADTAVYYCARCSGYGYSSGRSYFDYWGQETLVTVSS
VL: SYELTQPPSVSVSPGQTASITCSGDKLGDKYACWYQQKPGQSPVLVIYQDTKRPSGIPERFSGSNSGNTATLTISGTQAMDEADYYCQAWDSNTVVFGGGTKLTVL
notes: Same variable regions as Antibody 19
Human Protein S [1]
  Kd: 20 nM
  koff: 0.005 s⁻¹
  kon: 252000 M⁻¹ s⁻¹
[2]
  Kd: 16.9 nM
  koff: 0.00232 s⁻¹
  kon: 137000 M⁻¹ s⁻¹
Human Protein S [3]
  Kd: 8.18 nM
  koff: 0.00141 s⁻¹
  kon: 172000 M⁻¹ s⁻¹

B8: Antibody 8 (antibody, V domains shown)
VH: QVQLQESGPGLVKPSETLSLTCAVSGYSISSGYYWGWIRQPPGKGLDWIGSIYYSGSTYYNPSLKSRVTISVDTSKNQISLKLSSVTAADTAVYYCATTYSDIVTGYYNDAFDIWGQGTMVTVSS
VL: EIVMTQSPATLSVSPGERATLSCRASQRINSNLAWYQQKPGQAPRLLIYGASTRATGIPARFSGSGSGTEFTLTISSLQSEDFAAYYCQQYDNWPLTFGGGTKVEIK
notes: Same variable regions as Antibody 20
Human Protein S [1]
  Kd: 6.25 nM
  koff: 0.000823 s⁻¹
  kon: 132000 M⁻¹ s⁻¹
[2]
  Kd: 1.55 nM
  koff: 0.000133 s⁻¹
  kon: 85800 M⁻¹ s⁻¹
Human Protein S [3]
  Kd: 0.514 nM
  koff: 6.7e-05 s⁻¹
  kon: 131000 M⁻¹ s⁻¹

B9: Antibody 9 (antibody, V domains shown)
VH: QVQLVQSGAEVKKPGSSVKVSCKASGDTFSNHAINWVRQAPGQGLEWMGGYIPIFGTTNSAQKFRGRVTITADKSTNTAYMALSSLRSEDTAVYYCARGGLAGSHYKNYYYDGMDVWGQGTTVTVSS
VL: not shown
notes: Same variable regions as Antibody 21
Human Protein S [1]
  Kd: 15.9 nM
  koff: 0.00336 s⁻¹
  kon: 212000 M⁻¹ s⁻¹
[2]
  Kd: 0.266 nM
  koff: 4.42e-05 s⁻¹
  kon: 166000 M⁻¹ s⁻¹
Human Protein S [3]
  Kd: 0.533 nM
  koff: 0.000162 s⁻¹
  kon: 304000 M⁻¹ s⁻¹

B10: Antibody 12 (antibody, V domains shown)
VH: QVQLQESGPGLVKPSETLSLTCGVSGGSISSTNWWSWVRQPPGKGLEWIGEIYQTGSTDYDPSLKSRVTISIDKSKNQFSLKLYSVTAADTAVYYCARRFGELDYWGQGTLVTVSS
VL: EIVMTQSPATLSVSPGERATLSCRASQSVTSNLAWYQQKPGQAPRLLIYDASTRATGIPARFSGSGSGTEFTLTISSLQSEDFAIYYCQQYNNWPTFGQGTRLEIK
notes: Same variable regions as Antibody 24
Human Protein S [1]
  Kd: 14.4 nM
  koff: 0.00947 s⁻¹
  kon: 657000 M⁻¹ s⁻¹
[2]
  Kd: 11.3 nM
  koff: 0.00291 s⁻¹
  kon: 258000 M⁻¹ s⁻¹
Human Protein S [3]
  Kd: 7.49 nM
  koff: 0.00232 s⁻¹
  kon: 309000 M⁻¹ s⁻¹

B11: Antibody 2 (antibody, V domains shown)
VH: QVQLQESGPGLVKPSQTLSLTCTVSGGSITSDGYHWSWIRQYPGKGLDWIGYIYYTGNTYYNPSLKSRVTISVGTSQNQFSLKLISVTAADTAVYYCARRLSTGPYFDYWGQGTLVTVSS
VL: QSALTQPASVSGSPGQSITISCTGTSSDVGGYEFVSWYQHHPGKAPKLMIYDVSSRPSGVSNRFSGSKSGNTASLTISGLQAEDEADYYCSSYTRSSTVVFGGGARLTVL
notes: Same variable regions as Antibody 14
Human Protein S [1]
  Kd: 1.63 nM
  koff: 0.00056 s⁻¹
  kon: 346000 M⁻¹ s⁻¹
[2]
  Kd: < 0.001 nM
  koff: < 1e-07 s⁻¹
  kon: 154000 M⁻¹ s⁻¹
Human Protein S [3]
  Kd: < 0.001 nM
  koff: < 1e-07 s⁻¹
  kon: 207000 M⁻¹ s⁻¹

B12: Antibody 3 (antibody, V domains shown)
VH: EVQLVESGGGLVQPGRSLRLSCAASGFTFDDYAMHWVRQAPGKGLEWVSGITWNSGNIGYADSVKGRFTISRDNAKNSLYLHMNSLRIEDTAFYYCAKGRAVSDTFDIWGQGTMVTVSS
VL: SYELNQPPSVSVSPGQTASITCSGDKLGDKYASWYQQKPGQSPVVAIYQNSKRPSGIPERFSASNSGNTATLTISGTQALDEADYYCQAWDSSTWVFGGGTKLTVL
notes: Same variable regions as Antibody 15
Human Protein S [1]
  Kd: 2.24 nM
  koff: 0.000569 s⁻¹
  kon: 253000 M⁻¹ s⁻¹
[2]
  Kd: < 0.001 nM
  koff: < 1e-07 s⁻¹
  kon: 127000 M⁻¹ s⁻¹
Human Protein S [3]
  Kd: 0.0542 nM
  koff: 8.86e-06 s⁻¹
  kon: 164000 M⁻¹ s⁻¹
